Results as given in patent publication US20240327502A1 (Merck Sharp & Dohme, published 2024).
Where a chain is given by its changes, count along the chain named.

B1: M3C04 (antibody, V domains shown)
VH: EVQLVQSGAEVKKPGESLKISCKGSGYNFANYWIGWVRQMPGKGLEWMGIIYPGDSDTRRNPSFQGHVTMSVDQSISTAYLQWSSLKASDTAMYYCARPLAVSAFDIWGQGTMVTVSS
VL: DIQMTQSPSSLSASVGDKLTITCRASQSISNYLNWYQQKSGKAPKLLIYAASSLQSGVPSRFSGSGSGTDFTLTISSLQPEDFATYYCQQSASTPHTFGQGTKVEIV
notes: IgG
B2: M7D5 (antibody, V domains shown)
VH: QVQLVQSGAEVKKPGSSVKVSCKASGGTLSNYAISWVRQAPGQGLEWMGGIIPIFGTAMYAHNFQDRVTFTADESTNTVYMAVSRLTSDDTAVYYCAQDRTVTKYAHGLDVWGQGTTVTVSS
VL: DIQMTQSPSSLSASVGDRITITCPASQSLLTYLNWYQQKPGKAPKLLIYSASELPSGVPSRFSGSGSGTEFTLTVTGLQPDDFATYYCQQSHTTPLTFGGGTKVEIKR
notes: IgG
B3: M3A01 (antibody, V domains shown)
VH: EVQLVESGGGLVKPGGSLRLSCSVSAFSISGYNMHWVRQAPGKGLEWVSSITGGSNYINYADSVKGRFTISRDNAQNSLYLQMKSLRAEDTAVYYCARETQPSPGSFDSWGQGTLVTVSS
VL: QSVLTQPPSVSGAPGQRVTISCTGSSSNIGAGYDVNWYQQLPGTAPKLLIYGNYNRPSGVPDRFSASKSGTSASLAITGLQAEDEADYWCQSYDTSLSGWIFGGGTKLTVL
notes: IgG
B4: M3A08 (antibody, V domains shown)
VH: EVQLVESGGGLVKPGGSLRLSCAASGFSITSYGMHWVRQAPGKGLEWVSSISSSSSYISYRDSVKGRFTVSRDNAGNSLSLQMNSLRGEDTAVYHCARDAGLVPPWMDSWGQGTLVIVSS
VL: QSVLTQPPSVSGAAGQRVTISCTGSSSNLGTGYDVHWYRQQPGTAPKLIMFGNTNRPSGVPGRFSGSRSGTSASLAITGLQADDEADYYCQSYDSSLGGLVFGGGTKLTVL
notes: IgG
B5: M3E04 (antibody, V domains shown)
VH: EVQLVESGGGLVKPGGSLRLSCAGSGFTFSSYSMNWVRQAPGKGLEWVSSISASSSYIYYADSLKGRFTISRDNAKNSLYLQMNSLRAEDTAVYYCARANYGSGNYYNPKWFDPWGQGTLVTVSS
VL: B3 VL with N36H, L41F, L48V, Y54N, A66G, T78S, W89Y, T95S, W100S
notes: IgG
B6: M3E10 (antibody, V domains shown)
VH: QVQLVQSGAEVKKPGSSVKVSCKASGGTINSYAISWVRQAPGQGPEWLGGIIPIFGTANYAQNFPGRVTITADASTSTVYMELSSLRSDDTAIYYCARGTRYIAVMVPSMQDYYFFGMDVWGQGTTVTVSS
VL: DIQLTQSPSFLSASVGDRVTITCRASQGISSYLAWYQQKPGQAPKLLIYAASTLQSGVPSRFSGSGSGTEFTLTISSLQPEDFATYYCQQVTSYPFSITFGQGTRLEIK
notes: IgG
B7: M2B06 (antibody, V domains shown)
VH: QVQLQESGPRLVKPSGTLSLTCAVSGASITSSHWWTWVRQPPGKGLEWIGRIFHSGSTNYNPSLKSRVTISLDKSRNQFSLTLTSVTAADTAVYYCARDDQIVVMPAGFDRWGQGALVIVSS
VL: DIQMTQSPSSLSASVGDRVTITCRASQTISSYLNWYQQTPGKAPNLLIYGASRLQGGVPSRFSGSGSGTDFTLTISSLQPEDFAIYFCQQSKSIPYTFGQGTRLEIK
notes: IgG
B8: M2C07 (antibody, V domains shown)
VH: QVQLQESGPGLVAPSQTLSLICDVSGDSVTSGAYSWSWIRQHPVKGLEWIAYINYSGRTNYNPSLQSRLVISVDRSKNQFSLRLSSVTAADTAVYYCARANVVGYSGFYFDYWGQGTLVAVSS
VL: DIQMTQSPSSLSASVGDTVTITCRASQSVGAYLNWYQQKPGKAPKLLVFAGSSLQTGVPSRFSGRGSRTEFTLTITNLQREDFASYYCQQSLGDFLTFGGGTKVEIK
notes: IgG
B9: M2D03 (antibody, V domains shown)
VH: B8 VH with Y34H, F108Y
VL: B8 VL with T18R, V48I, T76S, S85T
notes: IgG
B10: M2D11 (antibody, V domains shown)
VH: QVQLQQWGAGLLKPSETLSLTCAVSGGSFSGYHWTWIRQPPGKGLEWIGEVDHGGNTNYNPSLMSRVTISVDMSTKQFSLRLTSMTAADTAVYYCARGFGVVINNWFDPWGQGTLVTVTS
VL: DIQMTQSPSSLSASVGDRVTITCRASQTISSYLNWYQQKPGKAPNLLIYTVSTLQSGVPSRFSGSGSGTDFTLTISSLQPEDFATYYCQQSYGAPYTFGQGTKLEIK
notes: IgG
B11: M3C11 (antibody, V domains shown)
VH: QVQLQESGPGLVKPSETLSLTCTVSGGSLSSYCWSWIRQPPGKGLEWIGYIYYSGGTNYNPSLKSRVTISVDTSKNQFSLNLSSVTAADTAVYYCARGEASGYLNYYFDYWGQGTLVAVSS
VL: SYELTQPPSVSVSPGQTASITCSGHKLGDKYAYWYQQKPGQSPVLVIYQDNKRPSGIPERFSGSNSGNTATLTISGTQAMDEADYYCQAWDSGTVFGGGTKLTVL
notes: IgG
B12: M3D05 (antibody, V domains shown)
VH: QVQLVQSGAEVKQPGASVKVSCKASGYTFSGYYIQWVRQAPGQGLEWMGWINPNSGGTNFAQKFQGRVTMTSDTSTSAAYMELSSLRSDDTAVYYCVRGQQLTRQYYFGMDVWGQGTTVTVSS
VL: QSVLTQPPSVSGAPGQRVIISCSGSSSNIRSNAVNWYQQLPGKAPKLLIFYDGLLPSGVSDRFSGSKTGNSASLAISGLQSEDEADYYCAAWDDSLNGPVFGGGTKLTVL
notes: IgG
B13: M3D10 (antibody, V domains shown)
VH: QVQLQESGPGLVKPSETLSLTCTVSGGSVSTYYWTWIRQPPGKGLDWIGYIYHNGNINYNPSLKSRVTMSVDTSKNQFSLKLTSVTAADTALYYCATVSFIGYSLYYFDRWGQGTLVTVSS
VL: DIQMTQSPSSLSASVGDRVTITCRASQNIASFLNWYQQRPGKAPDLLIYAASTLQTGVPSRFSGSGSGTDFTLAISSLQPEDFATYYCQQSYNTPFTFGQGTKLEIK
notes: IgG
B14: M4A06 (antibody, V domains shown)
VH: EVQLVESGGGLVRPGGSLRLSCAASGFSLTTDEVNWVRQAPGKGPEWVSFISASGHTIYYADSVKGRFTISRDNGRNSVYLQMNSLRAEDTAVYYCARVGRLGGVGYYYALGPFDLWGQGTMVTVSS
VL: EIVLTQSPGTLSLSPGERATLSCRASQSITSNYLAWYQQKPGQAPRLLIYGASSRATGIPDRFSGSGSGTDFTLTISRLQPEDFAVYYCQQYGSSLYIFGQGTKLEIK
notes: IgG
B15: M1A04 (antibody, V domains shown)
VH: EVQLVESGGGLVRPGGSLRLSCAASGFNVRNYYMSWVRQAPGKGLEWISVIYGGGTTFYAGSVKGRFTISRDDSKSTLFLQMNSLRADDTAVYYCARDPGTVMSTENLQGMDVWGQGTTVTVSS
VL: DIQMTQSPSSLSASVGDRVTITCRASQTIRSYLNWYQQKPGKAPNLLIYAATSLQSGVPSRFSGSGSGTDFTLTISSLQPEDSATYYCQQSFSTLYSFGQGTRLEIK
notes: IgG
B16: M2A11 (antibody, V domains shown)
VH: QVQLQESGPGLVKPSETLSLTCTVSGGSITSHYWSWVRQPPGKGLEWIAYIYYSGSTDYNPSLKSRVTISLDTSKNQVSLRLNSVTTADTAVYFCARCMPLYHVMHVWGHGTTVTVSS
VL: B3 VL with N28D, Y33S, N36H, Y54T, A66G, W89Y, T95S, S96G, W100Y, I101V
notes: IgG
B17: M2B01 (antibody, V domains shown)
VH: QVQLVESGGGVVQPGKSLRLSCAASGFTFSSHAMDWVRQVPGKGLEWVAVISYDGSNRYYADSVKGRFTISRDTSKNTLYLQMNSLRPEDTAVYYCARDFQPSPMVYGVGYFDYWGQGTLVTVSP
VL: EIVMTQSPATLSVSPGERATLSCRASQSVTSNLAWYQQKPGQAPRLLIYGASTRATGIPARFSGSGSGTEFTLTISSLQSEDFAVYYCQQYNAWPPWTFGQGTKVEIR
notes: IgG

The binders below were run against T1, hMPV PostF trimer (human metapneumovirus, strain B2) (assay: BLI, mAb on anti-human Fc sensor).
T1 construct: also called MPV PostF (dPFv1)
B1 showed an Octet binding response of 0.409 nm.
With B2 the Octet binding response was 0.0826 nm.
For B3, the Octet binding response was -0.062 nm.
Binder B4 has an Octet binding response of -0.0217 nm.
B5 was tested, and the Octet binding response was 0.0262 nm.
Work on B6 yielded an Octet binding response of 0.0082 nm.
B7 was tested, and the Octet binding response was 0.436 nm.
B8 gave an Octet binding response of 0.454 nm.
B9 was tested, and the Octet binding response was 0.503 nm.
B10 showed an Octet binding response of 0.43 nm.
B11 showed an Octet binding response of 0.433 nm.
Binder B12 has an Octet binding response of 0.539 nm.
For B13, the Octet binding response was 0.473 nm.
B14 gave an Octet binding response of 0.449 nm.
With B15 the Octet binding response was 0.618 nm.
Binder B16 has an Octet binding response of 0.293 nm.
In the case of B17, the Octet binding response is reported as 0.465 nm.

Each binder was assayed against T2, Processed stabilized hMPV PreF trimer (115BV) (human metapneumovirus, strain B2) (assay: BLI, mAb on anti-human Fc sensor).
T2 construct: also called Processed hMPV PreF trimer; processed PreF
B1 was tested, and the Octet binding response was 0.31 nm.
B2 gave an Octet binding response of 0.347 nm.
B3 showed an Octet binding response of 0.261 nm.
In the case of B4, the Octet binding response is reported as 0.249 nm.
B5 was tested, and the Octet binding response was 0.0401 nm.
In the case of B6, the Octet binding response is reported as 0.17 nm.
Binder B7 has an Octet binding response of 0.401 nm.
In the case of B8, the Octet binding response is reported as 0.44 nm.
For B9, the Octet binding response was 0.466 nm.
B10 was tested, and the Octet binding response was 0.436 nm.
With B11 the Octet binding response was 0.0794 nm.
Work on B12 yielded an Octet binding response of 0.0831 nm.
B13 gave an Octet binding response of 0.397 nm.
In the case of B14, the Octet binding response is reported as 0.281 nm.
B15 gave an Octet binding response of 0.557 nm.
For B16, the Octet binding response was 0.0658 nm.
B17 was tested, and the Octet binding response was 0.0607 nm.

The binders below were run against T3, Unprocessed hMPV PreF trimer (human metapneumovirus, strain B2) (assay: BLI, mAb on anti-human Fc sensor).
T3 construct: also called Unprocessed hMPV WT PreF trimer; unprocessed hMPV PreF trimeric antigen
B1 showed an Octet binding response of 0.379 nm.
Work on B2 yielded an Octet binding response of 0.296 nm.
B3 showed an Octet binding response of 0.251 nm.
B4 gave an Octet binding response of 0.422 nm.
B5 was tested, and the Octet binding response was 0.3 nm.
B6 was tested, and the Octet binding response was 0.351 nm.
In the case of B7, the Octet binding response is reported as 0.389 nm.
With B8 the Octet binding response was 0.418 nm.
Binder B9 has an Octet binding response of 0.425 nm.
For B10, the Octet binding response was 0.41 nm.
In the case of B11, the Octet binding response is reported as 0.317 nm.
B12 gave an Octet binding response of 0.338 nm.
B13 gave an Octet binding response of 0.38 nm.
Binder B14 has an Octet binding response of 0.36 nm.
B15 showed an Octet binding response of 0.453 nm.
B16 showed an Octet binding response of 0.285 nm.
With B17 the Octet binding response was 0.315 nm.

Each binder was assayed against T2, Processed stabilized hMPV PreF trimer … (assay: BLI, ratio to unprocessed PreF trimer).
For B1, the “processed/unprocessed PreF trimer binding ratio” value was 0.82.
For B2, the “processed/unprocessed PreF trimer binding ratio” value was 1.17.
In the case of B3, the “processed/unprocessed PreF trimer binding ratio” value is reported as 1.04.
With B4 the “processed/unprocessed PreF trimer binding ratio” value was 0.59.
For B5, the “processed/unprocessed PreF trimer binding ratio” value was 0.13.
In the case of B6, the “processed/unprocessed PreF trimer binding ratio” value is reported as 0.48.
For B7, the “processed/unprocessed PreF trimer binding ratio” value was 1.03.
B8 was tested, and the “processed/unprocessed PreF trimer binding ratio” value was 1.05.
B9 was tested, and the “processed/unprocessed PreF trimer binding ratio” value was 1.1.
B10 was tested, and the “processed/unprocessed PreF trimer binding ratio” value was 1.06.
B11 was tested, and the “processed/unprocessed PreF trimer binding ratio” value was 0.25.
With B12 the “processed/unprocessed PreF trimer binding ratio” value was 0.25.
With B13 the “processed/unprocessed PreF trimer binding ratio” value was 1.04.
B14 was tested, and the “processed/unprocessed PreF trimer binding ratio” value was 0.78.
B15 was tested, and the “processed/unprocessed PreF trimer binding ratio” value was 1.23.
With B16 the “processed/unprocessed PreF trimer binding ratio” value was 0.23.
With B17 the “processed/unprocessed PreF trimer binding ratio” value was 0.19.
